Blank lines part the entries; values can stand above or below the binder they belong to.
B1: Human Amyloid Beta 17-42 truncated peptide (peptide)
peptide: LVFFAEDVGSNKGAIIGLMVGGVVIA
notes: synthetic, unlabelled; also called Abeta 17-42
B5: Abet0007 IgG2 (antibody, V domains shown)
VH: EVQLLESGGGLVQPGGSLRLSCAASGFTFSVYTMWWVRQAPGKGLEWVSVIGSSGGTTVYADSVKGRFTISRDNSKNTLYLQMNSLRAEDTAVYYCAREGQQLVRPYYYYGMDVWGQGTLVTVSS
VL: QSVLTQPPSVSVSPGQTASITCSGHNLEDKFASWYQQKSGQSPVLVIYRDDKRPSGIPERFSASNSGHTATLTISGTQATDEADYYCQAQDSTTRVFGGGTKLTVL
notes: whole human IgG2 with human lambda light chain
B7: Abet0380-GL IgG1-TM (antibody, V domains shown)
VH: EVQLLESGGGLVQPGGSLRLSCAASMGNFNYQTMWWVRQAPGKGLEWVSVIGKTNENIAYADSVKGRFTISRDNSKNTLYLQMNSLRAEDTAVYYCAREWMDHSRPYYYYGMDVWGQGTLVTVSS
VL: SYELTQPPSVSVSPGQTASITCSGHNLEDKFASWYQQKPGQSPVLVIYRDDKRPSGIPERFSASNSGHTATLTISGTQAMDEADYYCSSQDTVTRVFGGGTKLTVL
notes: human IgG1 with the triple mutation L234F/L235E/P331S (TM), human lambda light chain; also called Abet0380-GL (germlined) IgG1-TM

Experiments:
Abet0007 IgG2 = target: B5; assay: HTRF peptide competition: dilution series of unlabelled peptide against 5 nM biotinylated human Amyloid beta 1-42 peptide for 0.3 nM Abet0007 IgG2 (section 1.6)
Procedure: (§1) As described above, the purified sFab fragments that bound specifically to the Amyloid beta 1-42 peptide were converted to recombinant IgG. To test the specificity of these IgGs for binding to other human Amyloid beta peptides, a competition assay was developed. […] The competition of each peptide was assessed by detecting the loss of binding of the lead IgG to the biotinylated 1-42 peptide by measuring the fluorescence resonance energy transfer (FRET) between the IgG and biotinylated 1-42 Amyloid beta using streptavidin cryptate (CisBio International, France; cat: 610SAKLB) and anti-human Fc IgG XL665 (CisBio International, France; cat: 61HFCXLB) detection reagents.
(§2) Streptavidin cryptate and anti-human Fc IgG XL665 were combined at 7 nM and 5 nM respectively in assay buffer containing 50 mM MOPS pH 7.4 (Sigma, UK; cat: M9381), 0.4 M KF (BDH Chemicals, USA; cat: 103444T), 0.1% fatty acid free bovine serum albumin (Sigma, UK; cat: A6003) and 0.1% Tween 20 (v/v) (Sigma, UK; cat: P2287). 5 μl of this solution were added to the assay plate (Costar® 384 well black shallow well, Corning Life Sciences; cat: 3676). Amyloid beta peptides were serially diluted in assay buffer using a Greiner 96 well U bottom plate (Greiner BioOne, Germany; cat: 650201). 5 μl of each peptide dilution were transferred in duplicate to the assay plate using a MiniTrak™ (PerkinElmer, USA) liquid handling robot. […]

Abet0144-GL IgG1-TM = target: T1, Abet0144-GL IgG1-TM; assay: TR-FRET peptide competition: dilution series of unlabelled peptide against 1.5 nM biotinylated human Amyloid beta 1-42 peptide for 0.28 nM Abet0144-GL IgG1-TM (section 2.10)
T1 construct: human IgG1 with the triple mutation L234F/L235E/P331S (TM), human lambda light chain; also called Abet0144-GL (germlined) IgG1-TM
Procedure: This involved the use of Europium cryptate labelled anti-human Fc IgG (CisBio International, France; cat: 61 HFCKLB) and XL665 labelled streptavidin (CisBio International, France; cat: 611SAXLB) TR-FRET detection reagents.
Experiments were set up in Costar 384 well shallow bottom microtitre plates. […] 5 μl of assay buffer only was added to the negative binding assay control wells. […] 5 μl per well of each test peptide serial dilution was then transferred onto the 384 well assay plate. 5 μl of assay buffer only was added to the total and negative binding assay control wells. […] Finally, a combined solution was prepared containing Europium cryptate labelled anti-human Fc (2.4 nM) and XL665 labelled streptavidin (60 nM). 5 μl per well of this solution was added to all wells of the 384 well assay plate such that the final concentrations of Europium cryptate labelled anti-human Fc and XL665 labelled streptavidin were 0.6 nM and 15 nM, respectively.

Abet0380-GL IgG1-TM = target: B7; assay: HTRF (TR-FRET) peptide competition: dilution series of peptide (10 uM to 0.17 nM) against 1.5 nM N-terminal biotin Abeta 1-42 for 0.5 nM Abet0380-GL IgG1-TM (Example 6)
Procedure: The assay was then incubated for a further 2 hrs at room temperature before reading on an Envision plate reader (PerkinElmer) using a standard homogeneous time resolved fluorescence (HTRF) read protocol.
The final assay volume was 20 ul and all reagents were prepared in an assay buffer comprising MOPS pH7.4 (50 mM), potassium fluoride (0.4M), tween 20 (0.1%) & fatty acid free BSA (0.1%). The assay was performed in low volume 384 well black assay plates (Costar 3676).

[1] = target: T2, Biotinylated Human Amyloid Beta 1-42 peptide (human, N-terminal biotin); assay: HTRF epitope competition, purified scFv; competitor Abet0042 IgG
T2 construct: synthetic (rPeptide A1117 or Bachem H-5642); also called N-terminal biotin Abeta 1-42; synthetic biotinylated human Amyloid beta 1-42 peptide
Procedure: The scFv with unique protein sequences were expressed in E. coli and purified by affinity chromatography followed by buffer exchange. […] The time resolved fluorescence was read after two hours incubation at room temperature.
Purified scFv were serially diluted in assay buffer containing 50 mM MOPS buffer pH 7.4 (Sigma, UK; cat: M9381), 0.4 M potassium fluoride (BDH Chemicals, USA; cat: 103444T), 0.1% fatty acid free bovine serum albumin (Sigma, UK; cat: A6003) and 0.1% Tween 20 (Sigma, UK; cat: P2287) using a Greiner 96 well U bottom plate (Greiner BioOne, Germany; cat: 650201). 5 μl of each dilution of scFv was transferred in duplicate to the assay plate (Costar® 384 well black shallow well, Corning Life Sciences; cat: 3676) using a MiniTrak™ (PerkinElmer, USA) liquid handling robot. […] The assay plates were sealed and incubated at room temperature for 1 hour. Streptavidin cryptate and anti-human Fc IgG XL665 were combined at 7 nM and 20 nM respectively in assay buffer and 5 μl of this solution were added to the assay plate.

[2] = target: T2, Biotinylated Human Amyloid Beta 1-42 …; assay: SPR (BIAcore T-100), scFv over biotinylated peptide on SA chip, 1:1 Langmuir fit
Procedure: The chip surface was regenerated between cycles by a single 20 second injection of 10 mM Glycine pH 2.0 to remove scFv bound to the peptide.
A series of dilutions of each purified scFv (12.5-400 nM) were sequentially passed over the peptide surface for a sufficient amount of time to observe sensorgrams that could be fitted to an appropriate binding model with confidence. A zero-concentration buffer blank was subtracted from the main dataset to reduce the impact of any buffer artefacts or non-specific binding effects. An appropriate binding model was then fitted simultaneously to the data from each analyte titration using the BIAevaluation software.

[3] = target: T3, Human Amyloid Beta 1-43 peptide (human); assay: HTRF peptide competition against biotinylated human Amyloid beta 1-42
T3 construct: synthetic, unlabelled; also called Abeta 1-43
T3 sequence (peptide, as listed by the source): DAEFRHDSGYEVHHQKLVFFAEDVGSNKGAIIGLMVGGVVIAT
Procedure: as §1, §2

[4] = target: B1; assay: as above
Procedure: as §1, §2

[5] = target: T4, Human Amyloid Beta 1-40 peptide (human); assay: HTRF peptide competition: dilution series of unlabelled peptide against 5 nM biotinylated human Amyloid beta 1-42 peptide for 0.3 nM Abet0007 IgG2 (section 1.6)
T4 construct: synthetic, unlabelled; also called unlabelled human Amyloid beta 1-40
T4 sequence (peptide, as listed by the source): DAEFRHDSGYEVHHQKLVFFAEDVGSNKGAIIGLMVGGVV
Procedure: as §1, §2

[6] = target: T5, Human Amyloid Beta 1-42 peptide (human); assay: SPR (BIAcore T-100), peptide over amine-coupled IgG, 1:1 Langmuir fit, mean
T5 construct: synthetic, unlabelled; also used here for the endogenous peptide of human plasma in the depletion assay; also called unlabelled human Amyloid beta 1-42; synthetic human Amyloid beta 1-42 peptide
Procedure: The chip surface was regenerated between cycles by a single 40 second injection of 10 mM Glycine pH 2.0 to remove ligand bound to the antibody.
Blank reference flow-cell data were subtracted from each IgG dataset and a zero-concentration buffer blank was double-reference subtracted from the main data set to reduce the impact of any buffer artefacts or non-specific binding effects. An appropriate binding model was then fitted simultaneously to the data from each analyte titration using the BIAevaluation software.
These parameters were derived from a 1:1 Langmuir fit to the data.

[7] = target: T2, Biotinylated Human Amyloid Beta 1-42 …; assay: SPR (ProteOn), scFv over immobilised biotinylated peptide
Procedure: These experiments were performed essentially as described by Karlsson et al. (Karlsson et al., 1991). For further details see section 1.7.
The chip surface was regenerated between cycles by a single 60 second injection of 10 mM Glycine pH 2.0 to remove scFv bound to the peptide.
Each scFv at 100-200 nM was sequentially passed over the peptide surface for a sufficient amount of time to observe sensorgrams that could be fitted to an appropriate binding model with confidence. An irrelevant scFv blank was subtracted from the main dataset to reduce the impact of any buffer artefacts or non-specific binding effects. An appropriate binding model was then fitted to the data.

[8] = target: T2, Biotinylated Human Amyloid Beta 1-42 …; assay: HTRF epitope competition; competitor Abet0144-GL IgG1-TM
[9] = target: T6, Amyloid beta plaques on human Alzheimer's Disease brain sections (human, UniProt P05067 672-713); assay: in vitro immunohistochemistry, core plaques
T6 construct: mixture of Amyloid beta species in tissue; also called native Amyloid beta; human AD brain sections

Binder: B1
- binding result (Abet0007 IgG2): binds

B3: Abet0144 scFv (scFv, V domains shown, not shown: small tags and cut ends)
VH: EVQLLESGGGLVQPGGSLRLSCAASGFTFSVYTMWWVRQAPGKGLEWVSVIGSSGGTTVYADSVKGRFTISRDNSKNTLYLQMNSLRAEDTAVYYCAREWMDHSRPYYYYGMDVWGQGTLVTVSS
VL: QSVLTQPPSVSVSPGQTASITCSGHNLEDKFASWYQQKSGQSPVLVIYRDDKRPSGIPERFSASNSGHTATLTISGTQATDEADYYCQAQDSTTRVFGGGTKLTVL
notes: non-germlined clone; VH is that of Abet0144-GL (no residues changed on germlining); also called most improved clone
- IC50 [1]: 5.5 nM
- Kd [2]: 33.2 nM
- koff [2]: 0.00666 s⁻¹
- kon [2]: 201000 M⁻¹ s⁻¹

Binder: B5
- binding result [3]: binds
- binding result [4]: binds
- binding result [5]: no binding (tested: about 2.5e-6 M (Log M about -5.6))
- Kd [6]: 473 nM
- koff [6]: 0.074 s⁻¹
- kon [6]: 160000 M⁻¹ s⁻¹

Binder: B7
- plaque staining score (0-4) [9]: 3

Now from value to binder:

- binding result (Abet0144-GL IgG1-TM): no binding (tested: 1e-5 M (logM -5))
- binding result (Abet0380-GL IgG1-TM): no binding (tested: 1e-5 M (log M -5))
B2: Human Amyloid Beta 1-16 truncated peptide (peptide)
peptide: DAEFRHDSGYEVHHQK
notes: synthetic, unlabelled; also called Abeta 1-16

- IC50 [1]: 159 nM
B4: Abet0007 scFv (scFv, V domains shown, not shown: small tags and cut ends)
VH: EVQLLESGGGLVQPGGSLRLSCAASGFTFSVYTMWWVRQAPGKGLEWVSVIGSSGGTTVYADSVKGRFTISRDNSKNTLYLQMNSLRAEDTAVYYCAREGQQLVRPYYYYGMDVWGQGTLVTVSS
VL: QSVLTQPPSVSVSPGQTASITCSGHNLEDKFASWYQQKSGQSPVLVIYRDDKRPSGIPERFSASNSGHTATLTISGTQATDEADYYCQAQDSTTRVFGGGTKLTVL
notes: purified scFv from E. coli (pCantab10.5); also called original lead; parent clone

- Kd [7]: 0.354 nM
- koff [7]: 7.97e-05 s⁻¹
- kon [7]: 225000 M⁻¹ s⁻¹
- IC50 [8]: 0.66 nM
B6: Abet0382 scFv (scFv, V domains shown, not shown: small tags and cut ends)
VH: EVQLLESGGGLVQPGGSLRLSCAASGFHFTNSIMWWVRQAPGKGLEWVSVIGSEAHRVTYADSVKGRFTISRDNSKNTLYLQMNSLRAEDTAVYYCAREWMDHSRPYYYYGMDVWGQGTLVTVSS
VL: SYELIQPPSVSVSPGQTASITCSGHNLEDKFASWYQQKPGQSPVLVIYRDDKRPSGIPERFSATNSGHTATLTISGTQATDEADYYCSSQDSVTRVFGGGTKLTVL
notes: purified scFv from E. coli
